Target: HOL-30, β-galactoside-binding tandem-repeat galectin from the marine sponge Halichondria okadai (Halichondria okadai)
Experiment: SEC

**Q.** “HOL-30, β-galactoside-binding tandem-repeat galectin from the marine sponge Halichondria okadai (natural protein)” was tested. Which stoichiometry N did it give?
**A.** 2

From publication PMC11979922
